Reference: paper PMC2996723 (Journal of molecular biology, 2009)
Where “and” joins values, the source holds several entries; their conditions need not be identical. Equal values may be shown once.

What was measured:
[1] = molecular target: HIV CA protein (p24) (human immunodeficiency virus (HIV)); assay: co-sedimentation
SEC-MALS = molecular target: the molecule itself; assay: SEC-MALS

## HIV CA protein (p24) (natural protein)
[1]
  critical concentration: 10 µM

B1: Rous sarcoma virus (RSV) CA protein, wild type (natural protein)
chain: PVVIKTEGPAWTPLEPKLITRLADTVRTKGLRSPITMAEVEALMSSPLLPHDVTNLMRVILGPAPYALWMDAWGVQLQTVIAAATRDPRHPANGQGRGERTNLNRLKGLADGMVGNPQGQAALLRPGELVAITASALQAFREVARLAEPAGPWADIMQGPSESFVDFANRLIKAVEGSDLPPSARAPVIIDCFRQKSQPDIQQLIRTAPSTLTTPGEIIKYVLDRQKTAPLTDQGIA
SEC-MALS
  stoichiometry N: 2 and 3 and 4
